# Results reported in FireProtDB (doi:10.1021/bi972395d).
# B1: Superoxide dismutase [Mn], mitochondrial wild type, P04179 (protein)
# chain: MLSRAVCGTSRQLAPVLGYLGSRQKHSLPDLPYDYGALEPHINAQIMQLHHSKHHAAYVNNLNVTEEKYQEALAKGDVTAQIALQPALKFNGGGHINHSIFWTNLSPNGGGEPKGELLEAIKRDFGSFDKFKEKLTAASVGVQGSGWGWLGFNKERGHLQIAACPNQDPLQGTTGLIPLLGIDVWEHAYYLQYKNVRPDYLKAIWNVINWENVTERYMACKK
# Settings: Homo sapiens; pH 7.8; Thermal; DSC; potassium phosphate 2 mM; transition: 2; reversible: Yes; whole UniProt chain shown
protein,measurement,value
B1,Tm,88.9 °C
same,unfolding enthalpy (calorimetric),90.6 kcal/mol
